# Source: publication PMC9482650, “Quantitative fragmentomics allow affinity mapping of interactomes” (Nature Communications, 2022)
# T1: APBA3_1, O96018
# T1 sequence (O96018 389-490, limits assumed, looked up): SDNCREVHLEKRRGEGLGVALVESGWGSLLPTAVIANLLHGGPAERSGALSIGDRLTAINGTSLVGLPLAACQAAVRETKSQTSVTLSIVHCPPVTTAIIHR
# T2: TX1BP3, O14907
# T2 sequence (O14907 10-122, limits assumed, looked up): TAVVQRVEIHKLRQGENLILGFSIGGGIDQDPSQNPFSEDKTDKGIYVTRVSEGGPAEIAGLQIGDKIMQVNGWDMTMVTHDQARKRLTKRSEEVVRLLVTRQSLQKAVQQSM
# T3: GRIP1_3, Q9Y3R0
# T3 sequence (Q9Y3R0 247-346, limits assumed, looked up): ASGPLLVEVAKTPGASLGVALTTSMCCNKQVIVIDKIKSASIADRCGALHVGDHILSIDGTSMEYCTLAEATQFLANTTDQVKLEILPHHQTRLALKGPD
# T4: SNTB1, Q13884
# T4 sequence (Q13884 107-205, limits assumed, looked up): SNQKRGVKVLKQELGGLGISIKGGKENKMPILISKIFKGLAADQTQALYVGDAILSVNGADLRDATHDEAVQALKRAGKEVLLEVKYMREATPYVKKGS
# T5: PDZRN3_1, Q9UPQ7
# T5 sequence (Q9UPQ7 244-349, limits assumed, looked up): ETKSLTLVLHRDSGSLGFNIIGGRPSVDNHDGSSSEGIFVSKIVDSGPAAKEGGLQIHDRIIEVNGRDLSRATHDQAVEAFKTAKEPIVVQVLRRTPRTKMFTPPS
# T6: DFNB31_1, Q9P202
# T6 sequence (Q9P202 135-233, limits assumed, looked up): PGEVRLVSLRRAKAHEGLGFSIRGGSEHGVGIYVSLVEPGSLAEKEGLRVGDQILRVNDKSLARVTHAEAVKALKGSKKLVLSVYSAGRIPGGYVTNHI
# T7: RADIL, Q96JH8
# T7 sequence (Q96JH8 971-1071, limits assumed, looked up): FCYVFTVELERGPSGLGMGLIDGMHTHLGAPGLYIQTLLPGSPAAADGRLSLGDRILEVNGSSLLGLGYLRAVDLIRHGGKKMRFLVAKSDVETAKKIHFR
# T8: GRIP1_5, Q9Y3R0
# T8 sequence (Q9Y3R0 568-668, limits assumed, looked up): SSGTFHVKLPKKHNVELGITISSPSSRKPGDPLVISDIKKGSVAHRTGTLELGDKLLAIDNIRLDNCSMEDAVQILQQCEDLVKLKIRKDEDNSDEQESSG
# B1: SEMA4F, O95754 (peptide)
# chain: PLATCDETSI
# B2: SDC3, O75056 (peptide)
# chain: KPDKQEEFYA
# Biological target: IL16_4, Q14005
# Sequence (Q14005 1229-1329): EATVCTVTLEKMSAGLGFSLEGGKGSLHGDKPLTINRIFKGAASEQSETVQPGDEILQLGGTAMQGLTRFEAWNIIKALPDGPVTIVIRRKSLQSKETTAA
# Experiment: holdup assay
# Design: key: below the threshold = too weak to quantify, mostly under pKd 3.1 to 4
# Settings: plain residues with an end cap or a label only (N-terminal biotin on a linker: ado-ado)
row,Binder,pKd
1,B1,below the threshold
2,B2,below the threshold

# Biological target: GIPC2, Q8TF65
# Sequence (Q8TF65 112-203): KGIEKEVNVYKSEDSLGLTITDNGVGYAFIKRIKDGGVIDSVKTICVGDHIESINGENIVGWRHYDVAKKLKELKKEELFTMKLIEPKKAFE
# Experiment: holdup assay
# Design: key: below the threshold = too weak to quantify, mostly under pKd 3.1 to 4
# Settings: plain residues with an end cap or a label only (N-terminal biotin on a linker: ado-ado)
row,Binder,pKd
1,B1,3.52
2,B2,below the threshold

# Biological target: DLG4_3, P78352
# Sequence (P78352 306-403): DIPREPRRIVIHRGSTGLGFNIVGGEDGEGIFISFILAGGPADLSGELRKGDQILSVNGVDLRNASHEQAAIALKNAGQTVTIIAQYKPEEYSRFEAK
# Experiment: holdup assay
# Design: key: below the threshold = too weak to quantify, mostly under pKd 3.1 to 4
# Settings: plain residues with an end cap or a label only (N-terminal biotin on a linker: ado-ado)
row,Binder,pKd
1,B1,below the threshold
2,B2,below the threshold

# Biological target: LNX1_1, Q8TBB1
# Sequence (Q8TBB1 261-371): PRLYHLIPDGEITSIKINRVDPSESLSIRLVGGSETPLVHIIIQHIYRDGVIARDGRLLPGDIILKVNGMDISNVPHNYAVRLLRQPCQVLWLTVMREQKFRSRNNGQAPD
# Experiment: holdup assay
# Design: key: below the threshold = too weak to quantify, mostly under pKd 3.1 to 4
# Settings: plain residues with an end cap or a label only (N-terminal biotin on a linker: ado-ado)
row,Binder,pKd
1,B1,below the threshold
2,B2,below the threshold

# Biological target: FRMPD4, Q14CM0
# Sequence (Q14CM0 67-160): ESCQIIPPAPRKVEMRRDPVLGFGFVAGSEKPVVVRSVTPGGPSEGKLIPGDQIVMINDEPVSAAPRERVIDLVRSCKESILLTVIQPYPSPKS
# Experiment: holdup assay
# Design: key: below the threshold = too weak to quantify, mostly under pKd 3.1 to 4
# Settings: plain residues with an end cap or a label only (N-terminal biotin on a linker: ado-ado)
row,Binder,pKd
1,B1,below the threshold
2,B2,3.49

# Biological target: T1, APBA3_1, O96018
# Experiment: holdup assay
# Design: key: below the threshold = too weak to quantify, mostly under pKd 3.1 to 4
# Settings: plain residues with an end cap or a label only (N-terminal biotin on a linker: ado-ado)
row,Binder,pKd
1,B1,below the threshold
2,B2,below the threshold

# Biological target: T2, TX1BP3, O14907
# Experiment: holdup assay
# Design: key: below the threshold = too weak to quantify, mostly under pKd 3.1 to 4
# Settings: plain residues with an end cap or a label only (N-terminal biotin on a linker: ado-ado)
row,Binder,pKd
1,B1,below the threshold
2,B2,below the threshold

# Biological target: T3, GRIP1_3, Q9Y3R0
# Experiment: holdup assay
# Design: key: below the threshold = too weak to quantify, mostly under pKd 3.1 to 4
# Settings: plain residues with an end cap or a label only (N-terminal biotin on a linker: ado-ado)
row,Binder,pKd
1,B1,below the threshold
2,B2,below the threshold

# Biological target: PDZRN4_1, Q6ZMN7
# Sequence (Q6ZMN7 213-318): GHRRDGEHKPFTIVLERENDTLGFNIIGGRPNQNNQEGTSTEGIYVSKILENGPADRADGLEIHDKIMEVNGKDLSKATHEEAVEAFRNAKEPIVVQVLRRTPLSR
# Experiment: holdup assay
# Design: key: below the threshold = too weak to quantify, mostly under pKd 3.1 to 4
# Settings: plain residues with an end cap or a label only (N-terminal biotin on a linker: ado-ado)
row,Binder,pKd
1,B1,4.33
2,B2,below the threshold

# Biological target: GRIP2_7, Q9C0E4
# Sequence (Q9C0E4 934-1023): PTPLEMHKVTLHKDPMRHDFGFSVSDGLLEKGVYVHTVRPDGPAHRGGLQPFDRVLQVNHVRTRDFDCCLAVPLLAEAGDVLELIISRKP
# Experiment: holdup assay
# Design: key: below the threshold = too weak to quantify, mostly under pKd 3.1 to 4
# Settings: plain residues with an end cap or a label only (N-terminal biotin on a linker: ado-ado)
row,Binder,pKd
1,B1,below the threshold
2,B2,below the threshold

# Biological target: GRIP2_4, Q9C0E4
# Sequence (Q9C0E4 446-548): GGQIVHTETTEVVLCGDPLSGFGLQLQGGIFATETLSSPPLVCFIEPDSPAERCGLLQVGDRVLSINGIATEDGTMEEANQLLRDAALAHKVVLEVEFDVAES
# Experiment: holdup assay
# Design: key: below the threshold = too weak to quantify, mostly under pKd 3.1 to 4
# Settings: plain residues with an end cap or a label only (N-terminal biotin on a linker: ado-ado)
row,Binder,pKd
1,B1,below the threshold
2,B2,below the threshold

# Biological target: SNX27, Q96L92
# Experiment: holdup assay
# Design: key: below the threshold = too weak to quantify, mostly under pKd 3.1 to 4
# Settings: plain residues with an end cap or a label only (N-terminal biotin on a linker: ado-ado)
row,Binder,pKd
1,B1,5.26
2,B2,below the threshold

# Biological target: LNX1_2, Q8TBB1
# Sequence (Q8TBB1 371-470): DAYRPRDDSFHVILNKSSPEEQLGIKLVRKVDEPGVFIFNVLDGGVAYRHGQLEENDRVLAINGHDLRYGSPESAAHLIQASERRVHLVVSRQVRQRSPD
# Experiment: holdup assay
# Design: key: below the threshold = too weak to quantify, mostly under pKd 3.1 to 4
# Settings: plain residues with an end cap or a label only (N-terminal biotin on a linker: ado-ado)
row,Binder,pKd
1,B1,below the threshold
2,B2,below the threshold

# Biological target: T4, SNTB1, Q13884
# Experiment: holdup assay
# Design: key: below the threshold = too weak to quantify, mostly under pKd 3.1 to 4
# Settings: plain residues with an end cap or a label only (N-terminal biotin on a linker: ado-ado)
row,Binder,pKd
1,B1,4.51
2,B2,below the threshold

# Biological target: T5, PDZRN3_1, Q9UPQ7
# Experiment: holdup assay
# Design: key: below the threshold = too weak to quantify, mostly under pKd 3.1 to 4
# Settings: plain residues with an end cap or a label only (N-terminal biotin on a linker: ado-ado)
row,Binder,pKd
1,B1,4.03
2,B2,below the threshold

# Biological target: GORASP1, Q9BQQ3
# Sequence (Q9BQQ3 1-208): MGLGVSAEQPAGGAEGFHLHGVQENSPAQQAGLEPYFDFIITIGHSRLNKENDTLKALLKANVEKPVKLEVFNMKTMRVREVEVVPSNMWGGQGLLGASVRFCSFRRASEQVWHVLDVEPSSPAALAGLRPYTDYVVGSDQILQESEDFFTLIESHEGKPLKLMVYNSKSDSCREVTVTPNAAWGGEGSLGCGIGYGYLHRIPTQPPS
# Experiment: holdup assay
# Design: key: below the threshold = too weak to quantify, mostly under pKd 3.1 to 4
# Settings: plain residues with an end cap or a label only (N-terminal biotin on a linker: ado-ado)
row,Binder,pKd
1,B1,below the threshold
2,B2,below the threshold

# Biological target: MAGI1_1, Q96QZ7
# Sequence (Q96QZ7 1-106): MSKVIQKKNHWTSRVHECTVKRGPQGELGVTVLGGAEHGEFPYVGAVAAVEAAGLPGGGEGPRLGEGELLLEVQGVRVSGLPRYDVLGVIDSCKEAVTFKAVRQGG
# Experiment: holdup assay
# Design: key: below the threshold = too weak to quantify, mostly under pKd 3.1 to 4
# Settings: plain residues with an end cap or a label only (N-terminal biotin on a linker: ado-ado)
row,Binder,pKd
1,B1,below the threshold
2,B2,below the threshold

# Biological target: Inadl_1, Q8NI35
# Sequence (Q8NI35 113-229): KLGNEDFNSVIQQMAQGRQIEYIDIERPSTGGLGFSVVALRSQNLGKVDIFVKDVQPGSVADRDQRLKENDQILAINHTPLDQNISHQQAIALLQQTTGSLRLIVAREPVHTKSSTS
# Experiment: holdup assay
# Design: key: below the threshold = too weak to quantify, mostly under pKd 3.1 to 4
# Settings: plain residues with an end cap or a label only (N-terminal biotin on a linker: ado-ado)
row,Binder,pKd
1,B1,below the threshold
2,B2,below the threshold

# Biological target: MAGI2_5, Q86UL8
# Sequence (Q86UL8 915-1017): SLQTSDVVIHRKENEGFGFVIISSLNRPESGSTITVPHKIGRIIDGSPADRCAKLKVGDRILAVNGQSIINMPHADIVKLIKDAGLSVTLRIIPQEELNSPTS
# Experiment: holdup assay
# Design: key: below the threshold = too weak to quantify, mostly under pKd 3.1 to 4
# Settings: plain residues with an end cap or a label only (N-terminal biotin on a linker: ado-ado)
row,Binder,pKd
1,B1,below the threshold
2,B2,below the threshold

# Biological target: MAGI1_2, Q96QZ7
# Sequence (Q96QZ7 456-580): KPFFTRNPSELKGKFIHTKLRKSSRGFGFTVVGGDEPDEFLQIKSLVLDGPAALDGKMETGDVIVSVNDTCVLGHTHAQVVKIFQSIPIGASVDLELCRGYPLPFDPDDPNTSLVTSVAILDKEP
# Experiment: holdup assay
# Design: key: below the threshold = too weak to quantify, mostly under pKd 3.1 to 4
# Settings: plain residues with an end cap or a label only (N-terminal biotin on a linker: ado-ado)
row,Binder,pKd
1,B1,below the threshold
2,B2,below the threshold

# Biological target: T6, DFNB31_1, Q9P202
# Experiment: holdup assay
# Design: key: below the threshold = too weak to quantify, mostly under pKd 3.1 to 4
# Settings: plain residues with an end cap or a label only (N-terminal biotin on a linker: ado-ado)
row,Binder,pKd
1,B1,5.13
2,B2,below the threshold

# Biological target: Inadl_6, Q8NI35
# Sequence (Q8NI35 1058-1167): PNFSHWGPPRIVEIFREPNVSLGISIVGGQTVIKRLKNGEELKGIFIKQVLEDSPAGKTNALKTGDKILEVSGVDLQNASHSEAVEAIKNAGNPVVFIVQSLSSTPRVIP
# Experiment: holdup assay
# Design: key: below the threshold = too weak to quantify, mostly under pKd 3.1 to 4
# Settings: plain residues with an end cap or a label only (N-terminal biotin on a linker: ado-ado)
row,Binder,pKd
1,B1,below the threshold
2,B2,below the threshold

# Biological target: SCRIB_3, Q14160
# Sequence (Q14160 999-1103): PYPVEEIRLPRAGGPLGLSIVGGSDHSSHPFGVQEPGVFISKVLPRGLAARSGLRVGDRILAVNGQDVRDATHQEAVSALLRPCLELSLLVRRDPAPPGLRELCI
# Experiment: holdup assay
# Design: key: below the threshold = too weak to quantify, mostly under pKd 3.1 to 4
# Settings: plain residues with an end cap or a label only (N-terminal biotin on a linker: ado-ado)
row,Binder,pKd
1,B1,4.81
2,B2,below the threshold

# Biological target: T7, RADIL, Q96JH8
# Experiment: holdup assay
# Design: key: below the threshold = too weak to quantify, mostly under pKd 3.1 to 4
# Settings: plain residues with an end cap or a label only (N-terminal biotin on a linker: ado-ado)
row,Binder,pKd
1,B1,below the threshold
2,B2,below the threshold

# Biological target: T8, GRIP1_5, Q9Y3R0
# Experiment: holdup assay
# Design: key: below the threshold = too weak to quantify, mostly under pKd 3.1 to 4
# Settings: plain residues with an end cap or a label only (N-terminal biotin on a linker: ado-ado)
row,Binder,pKd
1,B1,below the threshold
2,B2,below the threshold

# Biological target: LNX1_3, Q8TBB1
# Sequence (Q8TBB1 500-596): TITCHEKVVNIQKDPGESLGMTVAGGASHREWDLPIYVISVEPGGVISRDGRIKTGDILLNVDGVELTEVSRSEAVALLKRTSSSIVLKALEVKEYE
# Experiment: holdup assay
# Design: key: below the threshold = too weak to quantify, mostly under pKd 3.1 to 4
# Settings: plain residues with an end cap or a label only (N-terminal biotin on a linker: ado-ado)
row,Binder,pKd
1,B1,below the threshold
2,B2,below the threshold

# Biological target: MAGI2_6, Q86UL8
# Sequence (Q86UL8 1141-1229): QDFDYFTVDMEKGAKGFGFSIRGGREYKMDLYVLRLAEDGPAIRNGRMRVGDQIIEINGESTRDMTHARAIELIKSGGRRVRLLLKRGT
# Experiment: holdup assay
# Design: key: below the threshold = too weak to quantify, mostly under pKd 3.1 to 4
# Settings: plain residues with an end cap or a label only (N-terminal biotin on a linker: ado-ado)
row,Binder,pKd
1,B1,3.87
2,B2,below the threshold

# Biological target: PICK1, Q9NRD5
# Sequence (Q9NRD5 17-115): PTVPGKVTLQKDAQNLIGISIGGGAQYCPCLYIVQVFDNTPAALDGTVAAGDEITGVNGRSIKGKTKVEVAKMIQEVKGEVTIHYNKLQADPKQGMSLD
# Experiment: holdup assay
# Design: key: below the threshold = too weak to quantify, mostly under pKd 3.1 to 4
# Settings: plain residues with an end cap or a label only (N-terminal biotin on a linker: ado-ado)
row,Binder,pKd
1,B1,below the threshold
2,B2,below the threshold

# Biological target: DLG5_1, Q8TDM6
# Sequence (Q8TDM6 617-713): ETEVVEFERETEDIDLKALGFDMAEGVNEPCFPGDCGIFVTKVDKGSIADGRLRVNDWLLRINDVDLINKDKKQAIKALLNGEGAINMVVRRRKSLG
# Experiment: holdup assay
# Design: key: below the threshold = too weak to quantify, mostly under pKd 3.1 to 4
# Settings: plain residues with an end cap or a label only (N-terminal biotin on a linker: ado-ado)
row,Binder,pKd
1,B1,below the threshold
2,B2,below the threshold
